Experimental data from patent US20060134087A1, “ITI-D1 Kunitz domain mutants as hNE inhibitors” (Dyax Corp., priority 1988, published 2006).

Experiments:
[1] = biological target: T1, hNE (Homo sapiens, UniProt P08246); assay: Storage stability of purified inhibitor stock solutions; format: physicochemical
T1 sequence (P08246 30-267): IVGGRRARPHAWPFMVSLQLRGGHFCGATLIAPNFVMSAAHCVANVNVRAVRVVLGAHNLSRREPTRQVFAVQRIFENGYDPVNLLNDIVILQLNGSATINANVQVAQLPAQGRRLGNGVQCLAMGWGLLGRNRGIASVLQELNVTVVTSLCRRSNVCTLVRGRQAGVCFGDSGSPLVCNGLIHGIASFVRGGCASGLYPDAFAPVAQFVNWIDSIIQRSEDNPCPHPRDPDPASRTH
Description: Residual ammonium sulfate was removed from the EPI-HNE-2 preparation by ion exchange chromatography. The solution from the ammonium sulfate precipitation step was applied to a strong cation-exchange column (50 ml bed volume Macroprep 50S) (Bio-Rad Laboratories, Inc, Hercules, Calif.) previously equilibrated with 10 mM NaCitrate, pH=3.5. After loading, the column was washed with 300 ml of 10 mM NaCitrate, pH=3.5. EPI-HNE-2 was then batch-eluted from the column with 300 ml of 50 mM NH4OAc, pH=6.2. Fractions containing EPI-HNE-2 activity were pooled and the resulting solution was lyophilized. The dried protein powder was dissolved in 50 ml dH2O and the solution was passed through a 0.2μ filter (#4192, Gelman Sciences, Ann Arbor, Mich.). The concentration of the active inhibitor in the final stock solution was determined to be 2 mM (13.5 mg/ml).
The lyophilized protein powder was dissolved in 26 ml dH2O and the solution was passed through a 0.2μ filter (#4912, Gelman Sciences, Ann Arbor, Mich.). […] EPI-HNE-3 stored in water solution (without any buffering) deteriorated when kept at 4° C.

[2] = biological target: T1, hNE; assay: Temperature stability, residual inhibitory activity for hNE; format: physicochemical; set-up: Residual hNE Inhibitory Activity: unit not given here; settings: for Residual hNE Inhibitory Activity: 18 hours, pH 7.0, 1 μM protein; for temperature below which full inhibitory activity is maintained: thirty minutes, 1 μM, phosphate buffer pH=7
Description: The stability of EPI-HNE proteins to temperatures in the range 0° C. to 95° C. was assessed by incubating the inhibitors for thirty minutes at various temperatures and determining residual inhibitory activity for hNE. In these experiments, protein concentrations were 1 μM in phosphate buffer at pH=7. As is shown in Table 40, the four inhibitors are quite temperature stable.
Proteins were incubated at the stated temperature for 18 hours in buffer at pH 7.0. In all cases protein concentrations were 1 μM. At the end of the incubation period, aliquots of the reactions were diluted and residual hNE-inhibition activity determined.

[3] = biological target: T1, hNE; assay: pH stability, residual hNE inhibitory activity; format: physicochemical; settings: 37° C., 18 hours; for pH stability: pH 1 to pH 10, 1 μM; for Percent Residual hNE Inhibitory Activity: 1 μM protein
Description: The stability of the proteins to exposure to pH conditions in the range of pH 1 to pH 10 was assessed by maintaining the inhibitors in buffers of defined pH at 37° C. for 18 hours and determining the residual hNE inhibitory activity in the standard hNE-inhibition assay. Proteins were incubated at a concentration of 1 μM. The buffers shown in Table 4 were formulated as described (STOL90) and used in the pH ranges indicated: […]
Proteins were incubated at 37° C. for 18 hours in buffers of defined pH (see text). In all cases protein concentrations were 1 μM. At the end of the incubation period, aliquots of the reactions were diluted and residual hNE-inhibition activity determined.

[4] = biological target: T1, hNE; assay: Resistance to oxidative inactivation by Chloramine-T, residual hNE-inhibition activity; format: physicochemical; settings: for Percent Residual hNE-Inhibitory Activity: 20 minutes at RT
Description: At the end of the incubation period, the oxidation reactions were quenched by adding methionine to a final concentration of 4 mM. After a further 10 minute incubation, the quenched reactions were diluted and assayed for residual inhibitor activity in our standard hNE-inhibition assay.
Inhibitors were incubated in the presence of Chloramine-T at the molar ratios indicated for 20 minutes at RT. Oxidation reactions were quenched by adding methionine to a final concentration of 4 mM. Residual hNE-inhibition activity remaining in the quenched reactions is shown as a percentage of the activity observed with no added oxidant.

[5] = biological target: T1, hNE; assay: Kinetic on-rate of inhibitors reacting with hNE (progressive inhibition); format: biochemical; settings: for kon: [hNE] = 8.47 × 10^−10 molar; for koff: calculated from koff = KD × kon
Description: The kinetic on-rates for the inhibitors reacting with hNE (kon) were determined from measurements of progressive inhibition of substrate hydrolytic activity by hNE following addition of inhibitor. For these experiments, a known concentration of inhibitor was added to a solution of hNE (0.847 nM) and substrate (25 μM) in 2 ml of reaction buffer in a plastic fluorescence cuvette. The change in fluorescence was recorded continuously following addition of the inhibitor. […] The enzymatic rate at selected times following addition of the inhibitor was determined from the slope of the tangent to the fluorescence time course at that time.
The kinetic constant kon for EPI-HNE-2 reacting with hNE was determined as follows. EPI-HNE-2 at 1.3 nM was added to buffer containing 0.867 nM hNE (I:E=1.5:1) at time 0. Measured percent residual activity was recorded as a function of time after addition of inhibitor. A least-squares fit program was used to obtain the value of kon=4.0×10^6 M^−1s^−1.
The kinetic off rate, koff, is calculated from the measured values of Ki and kon as: […] The values from such measurements are included in Table 30. The EPI-HNE proteins are small, high affinity, fast acting inhibitors of hNE. B. Specificity.

[6] = Molar Ratio CHL-T:Inhibitor 1.0
[7] = Molar Ratio CHL-T:Inhibitor 10.
[8] = Molar Ratio CHL-T:Inhibitor .50

| Substance | Residual hNE Inhibitory Activity ([2]; Temperature 0 ° C.) | Residual hNE Inhibitory Activity ([2]; Temperature 23 ° C.) | Residual hNE Inhibitory Activity ([2]; Temperature 37 ° C.) | Residual hNE Inhibitory Activity ([2]; Temperature 52 ° C.) | Residual hNE Inhibitory Activity ([2]; Temperature 65 ° C.) | Residual hNE Inhibitory Activity ([2]; Temperature 80 ° C.) | Residual hNE Inhibitory Activity ([2]; Temperature 93 ° C.) | temperature below which full inhibitory activity is maintained [2] | pH stability [3] | Percent Residual hNE Inhibitory Activity ([3]; Incubation pH 1.0) | Percent Residual hNE Inhibitory Activity ([3]; Incubation pH 2.0) | Percent Residual hNE Inhibitory Activity ([3]; Incubation pH 3.0) | Percent Residual hNE Inhibitory Activity ([3]; Incubation pH 4.0) | Percent Residual hNE Inhibitory Activity ([3]; Incubation pH 5.5) | Percent Residual hNE Inhibitory Activity ([3]; Incubation pH 7.0) | Percent Residual hNE Inhibitory Activity ([3]; Incubation pH 8.5) | Percent Residual hNE Inhibitory Activity ([3]; Incubation pH 10.0) | Percent Residual hNE-Inhibitory Activity ([4]; Molar Ratio CHL-T:Inhibitor 0) | Percent Residual hNE-Inhibitory Activity [4, 6] | Percent Residual hNE-Inhibitory Activity [4, 7] | other results |
| --- | --- | --- | --- | --- | --- | --- | --- | --- | --- | --- | --- | --- | --- | --- | --- | --- | --- | --- | --- | --- | --- |
| EPI-HNE-2: EPI-HNE-1 with four additional residues EAEA at the amino terminus, SEQ ID NO 008 | 101 | 103 | 97 | 101 | 95 | 101 | 88 | below 90 °C | stable at all pH values tested | 98% | 97% | 101% | 101% | 99% | 103% | 104% | 102% | 100% | 102% | 98% | activity after storage ([1]; stock solution 2 mM, 4° C. and −70° C., more than 11 months): no loss in activity; Percent Residual hNE-Inhibitory Activity ([4]; Molar Ratio CHL-T:Inhibitor 0.25): 94%; Percent Residual hNE-Inhibitory Activity ([4]; Molar Ratio CHL-T:Inhibitor 1.5): 95%; Percent Residual hNE-Inhibitory Activity ([4]; Molar Ratio CHL-T:Inhibitor 2.0): 102%; Percent Residual hNE-Inhibitory Activity ([4]; Molar Ratio CHL-T:Inhibitor 4.0): 95%; Percent Residual hNE-Inhibitory Activity [4, 8]: 102%; kon [5]: 4.0 10^6/M/s; koff [5]: 20. 10^−6/s |
| EPI-HNE-3: ITI-D2(3-58) with R15I, I18F, Q19P, L20R; SEQ ID NO 026 (AACNLPIVRGPCIAFFPRWAFDAVKGKCVLFPYGGCQGNGNKFYSEKECREYCGVP; Epi-HNE-3) | 96 | 105 | 99 | 100 | 87 | 79 | 57 | below 65 °C | stable when incubated at low pH, but showed some loss of activity at high pH | 97% | 97% | 100% | 102% | 99% | 103% | 68% | 27% | 100% | 97% | 97% | activity after storage ([1]; stock solution 250 μM, −70° C., more than six months): no loss of activity; material active after storage ([1]; water solution without buffering, 4° C., five months): about 70%; Percent Residual hNE Inhibitory Activity ([3]; Incubation pH 6.0): 103%; Percent Residual hNE Inhibitory Activity ([3]; Incubation pH 6.5): 99%; Percent Residual hNE Inhibitory Activity ([3]; Incubation pH 7.5): 87%; Percent Residual hNE Inhibitory Activity ([3]; Incubation pH 8.0): 84%; Percent Residual hNE Inhibitory Activity ([3]; Incubation pH 9.4): 44%; Percent Residual hNE-Inhibitory Activity ([4]; Molar Ratio CHL-T:Inhibitor 3.0): 97%; Percent Residual hNE-Inhibitory Activity ([4]; Molar Ratio CHL-T:Inhibitor 5.0): 94%; Percent Residual hNE-Inhibitory Activity ([4]; Molar Ratio CHL-T:Inhibitor 30.): 100%; Percent Residual hNE-Inhibitory Activity ([4]; Molar Ratio CHL-T:Inhibitor 50.): 94%; Percent Residual hNE-Inhibitory Activity [4, 8]: 97%; hNE-inhibition activity after exposure to Chloramine-T ([4]; all molar ratios tested (up to 50:1 for EPI-HNE-3 and EPI-HNE-4)): retain essentially complete hNE-inhibition activity; kon [5]: 8.0 10^6/M/s; koff [5]: 50. 10^−6/s |
